Experimental data from US20230357348A1 (AstraZeneca / MedImmune, published 2023).
Starred links: 1 amine or outer side, 2 acyl side, 3 side chain; linkers in the order of their positions; H or OH if unused. Non-standard residues stand in square brackets, D forms with d. Groups on a side chain read outwards from the residue. No end group written: not given here. *: point of attachment. C20 diacid = O=C(O)CCCCCCCCCCCCCCCCCCC(=O)*; C18 diacid = O=C(O)CCCCCCCCCCCCCCCCC(=O)*; γGlu = O=C(O)[C@H](CCC(=O)[*:2])N[*:1]; αMeF = C[C@](N)(Cc1ccccc1)C(=O)O; (PEG)2 = polyethylene glycol 2; PEG4 = NCCOCCOCCOCCOCCC(=O)O; AEEA = NCCOCCOCC(=O)O; Aib = CC(C)(N)C(=O)O

B1: Peptide 221 (peptide)
peptide: H[Aib]HGS[αMeF]TSDVSK[αMeF]LDSR[Aib]AK([AEEA-AEEA-γGlu-γGlu-C20 diacid])DFVQ[Aib]IANT-NH2
modifications: not fully specified
B2: Peptide 256 (peptide)
peptide: H[Aib]HGS[αMeF]TSDVSK[αMeF]LDSQAAK([AEEA-AEEA-γGlu-γGlu-C20 diacid])D[αMeF]VQ[Aib]IANT-NH2
B3: Peptide 260 (peptide)
peptide: H[Aib]HGS[αMeF]TSDVSK[αMeF]LDSRAAK([AEEA-γGlu-AEEA-γGlu-C18 diacid])D[αMeF]VQ[Aib]IANT-NH2
B4: Peptide 261 (peptide)
peptide: H[Aib]HGS[αMeF]TSDVSK[αMeF]LDSRAAK([PEG4-γGlu-C18 diacid])D[αMeF]VQ[Aib]IANT-NH2
modifications: N-terminus assumed
SMILES: CC[C@H](C)[C@H](NC(=O)C(C)(C)NC(=O)[C@H](CCC(N)=O)NC(=O)[C@@H](NC(=O)[C@](C)(Cc1ccccc1)NC(=O)[C@H](CC(=O)O)NC(=O)[C@H](CCCCNC(=O)CCOCCOCCOCCOCCNC(=O)CC[C@H](NC(=O)CCCCCCCCCCCCCCCCC(=O)O)C(=O)O)NC(=O)[C@H](C)NC(=O)[C@H](C)NC(=O)[C@H](CCCNC(=N)N)NC(=O)[C@H](CO)NC(=O)[C@H](CC(=O)O)NC(=O)[C@H](CC(C)C)NC(=O)[C@](C)(Cc1ccccc1)NC(=O)[C@H](CCCCN)NC(=O)[C@H](CO)NC(=O)[C@@H](NC(=O)[C@H](CC(=O)O)NC(=O)[C@H](CO)NC(=O)[C@@H](NC(=O)[C@](C)(Cc1ccccc1)NC(=O)[C@H](CO)NC(=O)CNC(=O)[C@H](Cc1c[nH]cn1)NC(=O)C(C)(C)NC(=O)[C@@H](N)Cc1c[nH]cn1)[C@@H](C)O)C(C)C)C(C)C)C(=O)N[C@@H](C)C(=O)N[C@@H](CC(N)=O)C(=O)N[C@H](C(N)=O)[C@@H](C)O
B5: Peptide 252 (peptide)
peptide: H[Aib]HGS[αMeF]TSDVSK[αMeF]LDSR[Aib]AK([AEEA-AEEA-γGlu-C20 diacid])DFVESIANT-NH2
B6: Peptide 264 (peptide)
peptide: H[Aib]HGS[αMeF]TSDVSK[αMeF]LDSRAAK([(PEG)2-(PEG)2-γGlu-γGlu-C20 diacid])D[αMeF]VQ[Aib]IANT-NH2
B7: Peptide 250 (peptide)
peptide: H[Aib]HGS[αMeF]TSDVSK[αMeF]LDSR[Aib]AK([AEEA-AEEA-γGlu-γGlu-C18 diacid])D[αMeF]VESIANT-NH2
B8: Peptide 227 (peptide)
peptide: H[Aib]HGS[αMeF]TSDVSK[αMeF]LDSRAAK([AEEA-AEEA-γGlu-C18 diacid])D[αMeF]VE[Aib]IANT-NH2
B9: Peptide 246 (peptide)
peptide: H[Aib]HGS[αMeF]TSDVSK[αMeF]LDSRAAK([AEEA-AEEA-γGlu-γGlu-C20 diacid])D[αMeF]VESIANT-NH2
modifications: N-terminus assumed
SMILES: CC[C@H](C)[C@H](NC(=O)[C@H](CO)NC(=O)[C@H](CCC(=O)O)NC(=O)[C@@H](NC(=O)[C@](C)(Cc1ccccc1)NC(=O)[C@H](CC(=O)O)NC(=O)[C@H](CCCCNC(=O)COCCOCCNC(=O)COCCOCCNC(=O)CC[C@H](NC(=O)CC[C@H](NC(=O)CCCCCCCCCCCCCCCCCCC(=O)O)C(=O)O)C(=O)O)NC(=O)[C@H](C)NC(=O)[C@H](C)NC(=O)[C@H](CCCNC(=N)N)NC(=O)[C@H](CO)NC(=O)[C@H](CC(=O)O)NC(=O)[C@H](CC(C)C)NC(=O)[C@](C)(Cc1ccccc1)NC(=O)[C@H](CCCCN)NC(=O)[C@H](CO)NC(=O)[C@@H](NC(=O)[C@H](CC(=O)O)NC(=O)[C@H](CO)NC(=O)[C@@H](NC(=O)[C@](C)(Cc1ccccc1)NC(=O)[C@H](CO)NC(=O)CNC(=O)[C@H](Cc1c[nH]cn1)NC(=O)C(C)(C)NC(=O)[C@@H](N)Cc1c[nH]cn1)[C@@H](C)O)C(C)C)C(C)C)C(=O)N[C@@H](C)C(=O)N[C@@H](CC(N)=O)C(=O)N[C@H](C(N)=O)[C@@H](C)O
B10: Peptide 254 (peptide)
peptide: H[Aib]HGS[αMeF]TSDVSK[αMeF]LDSR[Aib]AK([γGlu-C18 diacid])DFVESIANT-NH2
B11: Peptide 266 (peptide)
peptide: H[Aib]HGS[αMeF]TSDVSK[αMeF]LDSRAAK([AEEA-γGlu-AEEA-γGlu-C20 diacid])D[αMeF]VQ[Aib]IANT-NH2
B12: Peptide 251 (peptide)
peptide: H[Aib]HGS[αMeF]TSDVSK[αMeF]LDSR[Aib]AK([AEEA-AEEA-γGlu-C18 diacid])DFVESIANT-NH2
modifications: not fully specified
B13: Peptide 244 (peptide)
peptide: H[Aib]HGS[αMeF]TSDVSK[αMeF]LDSRAAK([AEEA-AEEA-γGlu-γGlu-C20 diacid])D[αMeF]VQSIANT-NH2
modifications: not fully specified
B14: Peptide 258 (peptide)
peptide: H[Aib]HGS[αMeF]TSDVSK[αMeF]LDSRAAK([(PEG)2-(PEG)2-γGlu-γGlu-C18 diacid])D[αMeF]VQ[Aib]IANT-NH2
B15: Peptide 259 (peptide)
peptide: H[Aib]HGS[αMeF]TSDVSK[αMeF]LDSRAAK([AEEA-γGlu-AEEA-C18 diacid])D[αMeF]VQ[Aib]IANT-NH2
B16: Peptide 262 (peptide)
peptide: H[Aib]HGS[αMeF]TSDVSK[αMeF]LDSRAAK([AEEA-γGlu-C18 diacid])D[αMeF]VQ[Aib]IANT-NH2
B17: Peptide 263 (peptide)
peptide: H[Aib]HGS[αMeF]TSDVSK[αMeF]LDSRAAK([PEG4-γGlu-γGlu-C18 diacid])D[αMeF]VQ[Aib]IANT-NH2
B18: Peptide 267 (peptide)
peptide: H[Aib]HGS[αMeF]TSDVSK[αMeF]LDSRAAK([PEG4-γGlu-C20 diacid])D[αMeF]VQ[Aib]IANT-NH2
B19: Peptide 265 (peptide)
peptide: H[Aib]HGS[αMeF]TSDVSK[αMeF]LDSRAAK([AEEA-γGlu-AEEA-C20 diacid])D[αMeF]VQ[Aib]IANT-NH2
B20: Peptide 225 (peptide)
peptide: H[Aib]HGS[αMeF]TSDVSK[αMeF]LDSRAAK([AEEA-AEEA-γGlu-C18 diacid])D[αMeF]VQ[Aib]IANT-NH2
modifications: N-terminus assumed
SMILES: CC[C@H](C)[C@H](NC(=O)C(C)(C)NC(=O)[C@H](CCC(N)=O)NC(=O)[C@@H](NC(=O)[C@](C)(Cc1ccccc1)NC(=O)[C@H](CC(=O)O)NC(=O)[C@H](CCCCNC(=O)COCCOCCNC(=O)COCCOCCNC(=O)CC[C@H](NC(=O)CCCCCCCCCCCCCCCCC(=O)O)C(=O)O)NC(=O)[C@H](C)NC(=O)[C@H](C)NC(=O)[C@H](CCCNC(=N)N)NC(=O)[C@H](CO)NC(=O)[C@H](CC(=O)O)NC(=O)[C@H](CC(C)C)NC(=O)[C@](C)(Cc1ccccc1)NC(=O)[C@H](CCCCN)NC(=O)[C@H](CO)NC(=O)[C@@H](NC(=O)[C@H](CC(=O)O)NC(=O)[C@H](CO)NC(=O)[C@@H](NC(=O)[C@](C)(Cc1ccccc1)NC(=O)[C@H](CO)NC(=O)CNC(=O)[C@H](Cc1c[nH]cn1)NC(=O)C(C)(C)NC(=O)[C@@H](N)Cc1c[nH]cn1)[C@@H](C)O)C(C)C)C(C)C)C(=O)N[C@@H](C)C(=O)N[C@@H](CC(N)=O)C(=O)N[C@H](C(N)=O)[C@@H](C)O
B21: Peptide 253 (peptide)
peptide: H[Aib]HGS[αMeF]TSDVSK[αMeF]LDSR[Aib]AK([AEEA-γGlu-C18 diacid])DFVESIANT-NH2

Key:
human GLP-1 receptor = human GLP-1 receptor (human, UniProt P43220 24-463); experiment: cell-based or functional assay
human glucagon receptor = human glucagon receptor (human, UniProt P47871 26-477); experiment: cell-based or functional assay
Sequence of human glucagon receptor (P47871 26-477): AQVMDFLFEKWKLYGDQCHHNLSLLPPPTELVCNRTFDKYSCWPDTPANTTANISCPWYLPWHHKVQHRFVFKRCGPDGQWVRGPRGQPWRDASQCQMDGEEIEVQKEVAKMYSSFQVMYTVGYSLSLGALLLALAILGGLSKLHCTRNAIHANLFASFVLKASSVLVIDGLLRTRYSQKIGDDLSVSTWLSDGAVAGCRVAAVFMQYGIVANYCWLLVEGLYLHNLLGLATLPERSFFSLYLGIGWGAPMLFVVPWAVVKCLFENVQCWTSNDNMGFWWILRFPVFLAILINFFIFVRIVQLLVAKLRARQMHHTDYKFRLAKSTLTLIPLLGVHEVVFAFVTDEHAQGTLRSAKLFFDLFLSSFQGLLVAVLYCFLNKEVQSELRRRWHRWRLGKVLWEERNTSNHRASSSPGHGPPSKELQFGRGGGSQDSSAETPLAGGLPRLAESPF

Binder | hGLP-1R EC50 (pM), cAMP (human GLP-1 receptor) [pM] | hGluc-R EC50 (pM), cAMP (human glucagon receptor) [pM]
B1 | 122 | 123
B2 | 346 | 1310
B3 | 33.1 | 76.9
B4 | 16.2 | 29.4
B5 | 119 | 1310
B6 | 69.5 | 297
B7 | 601 | 1570
B8 | 70.5 | 27.2
B9 | 320 | 557
B10 | 102 | 125
B11 | 66.5 | 293
B12 | 79.8 | 248
B13 | 143 | 420
B14 | 34 | 93.1
B15 | 19.1 | 34.8
B16 | 13 | 11.7
B17 | 25.4 | 64.6
B18 | 65.6 | 128
B19 | 71.2 | 131
B20 | 34.9 | 145
B21 | 75.5 | 53.1
